# Residue numbers refer to the chain shown, from its start.
# T1: [2Fe-2S]-IscR wild-type (Escherichia coli, UniProt P0AGK8 1-162)
# T1 sequence: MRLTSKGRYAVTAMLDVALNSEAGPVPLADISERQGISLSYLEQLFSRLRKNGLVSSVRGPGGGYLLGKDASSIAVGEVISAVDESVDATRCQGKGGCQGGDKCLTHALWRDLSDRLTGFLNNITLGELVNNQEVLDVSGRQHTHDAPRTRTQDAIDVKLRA
# T2: [2Fe-2S]-IscR-E43A (Escherichia coli, UniProt P0AGK8 1-162, E43A)
# T2 sequence: T1 sequence with E43A
# T3: [2Fe-2S]-IscR-S40A (Escherichia coli, UniProt P0AGK8 1-162, S40A)
# T3 sequence: T1 sequence with S40A
# T4: [2Fe-2S]-IscR-R59A (Escherichia coli, UniProt P0AGK8 1-162, R59A)
# T4 sequence: T1 sequence with R59A
# B1: iscRBcc (symmetrical CC) (dsDNA)
# DNA 1: AAATAGCCGACCATTTTACTCGGGAATGTC
# DNA 2: GACATTCCCGAGTAAAATGGTCGGCTATTT
# B2: hya 30-mer (type 2) (dsDNA)
# DNA 1: ATAAATCCACACAGTTTGTATTGTTTTGTG
# DNA 2: CACAAAACAATACAAACTGTGTGGATTTAT
# B3: iscRB 30-mer (type 1) (dsDNA)
# DNA 1: B1 DNA 1 with C7T, C8T
# DNA 2: B1 DNA 2 with G23A, G24A
# Key:
# Experiment in all cases: fluorescence anisotropy
# [2Fe-2S]-IscR wild-type = target: T1, [2Fe-2S]-IscR wild-type
# [2Fe-2S]-IscR-E43A = target: T2, [2Fe-2S]-IscR-E43A
# [2Fe-2S]-IscR-S40A = target: T3, [2Fe-2S]-IscR-S40A
# [2Fe-2S]-IscR-R59A = target: T4, [2Fe-2S]-IscR-R59A
binder,measurement,setting,value
B1,binding result,[2Fe-2S]-IscR wild-type,binds
B2,binding result,[2Fe-2S]-IscR-E43A,binds
B3,Kd,[2Fe-2S]-IscR-S40A,94 ± 3 nM
same,Kd,[2Fe-2S]-IscR-E43A,21 ± 1 nM
same,binding result,[2Fe-2S]-IscR-R59A,no binding
same,Kd,[2Fe-2S]-IscR wild-type,24 ± 1 nM

# Reference: publication PMC3676455
